Experimental data reported in publication PMC8477213.
Where a chain is given by its changes, count along the chain named. Like-named read-outs stand apart in the source and are kept apart here.

T1: Tnp26 WT (IS26 (bacterial insertion sequence; …, UniProt A0A2K9V0L7 1-234, G117R)
T1 sequence: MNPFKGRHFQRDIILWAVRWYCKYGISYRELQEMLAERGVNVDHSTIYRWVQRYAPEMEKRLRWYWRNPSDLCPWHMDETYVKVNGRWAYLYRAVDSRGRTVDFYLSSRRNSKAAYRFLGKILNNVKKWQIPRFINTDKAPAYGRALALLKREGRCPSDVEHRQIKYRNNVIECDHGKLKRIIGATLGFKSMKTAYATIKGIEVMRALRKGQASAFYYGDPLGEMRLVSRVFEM

T2: Tnp26 Y54A (IS26 (bacterial insertion sequence; …, UniProt A0A2K9V0L7 1-234, Y54A;G117R)
T2 sequence: T1 sequence with Y54A

T3: Tnp26 W50A (IS26 (bacterial insertion sequence; …, UniProt A0A2K9V0L7 1-234, W50A;G117R)
T3 sequence: T1 sequence with W50A

T4: Tnp26 F9A (IS26 (bacterial insertion sequence; …, UniProt A0A2K9V0L7 1-234, F9A;G117R)
T4 sequence: T1 sequence with F9A

T5: Tnp26 R49A (IS26 (bacterial insertion sequence; …, UniProt A0A2K9V0L7 1-234, R49A;G117R)
T5 sequence: T1 sequence with R49A

T6: Tnp26 F4A (IS26 (bacterial insertion sequence; …, UniProt A0A2K9V0L7 1-234, F4A;G117R)
T6 sequence: T1 sequence with F4A

T7: Tnp26 1-56 (IS26 (bacterial insertion sequence; …, UniProt A0A2K9V0L7 1-56)
T7 sequence: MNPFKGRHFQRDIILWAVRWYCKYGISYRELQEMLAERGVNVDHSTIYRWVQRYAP

B1: TIRR 25mer (dsDNA)
DNA 1: TCAGATCGATGGCACTGTTGCAAAG
DNA 2: CTTTGCAACAGTGCCATCGATCTGA
B2: TIRL 50mer (dsDNA)
DNA 1: TCAGATCGATGGCACTGTTGCAAATAGTCGGTGGTGATAAACTTATCATC
DNA 2: GATGATAAGTTTATCACCACCGACTATTTGCAACAGTGCCATCGATCTGA
B3: Scrambled TIRR (dsDNA)
DNA 1: TTCGTGACTACATCGATCTAGGCTAGCTAGTCAGCTGATCGACTAGCGAT
DNA 2: ATCGCTAGTCGATCAGCTGACTAGCTAGCCTAGATCGATGTAGTCACGAA
B4: TIRR 50mer (dsDNA)
DNA 1: TCAGATCGATGGCACTGTTGCAAAGTTAGCGATGAGGCAGCCTTTTGTCT
DNA 2: AGACAAAAGGCTGCCTCATCGCTAACTTTGCAACAGTGCCATCGATCTGA
B5: TIRR 7G>T (dsDNA)
DNA 1: B4 DNA 1 with G17T
DNA 2: B4 DNA 2 with C34A
B6: TIRR 10G>T (dsDNA)
DNA 1: B4 DNA 1 with G20T
DNA 2: B4 DNA 2 with C31A
B7: TIRR 1G>T 2G>T (dsDNA)
DNA 1: B4 DNA 1 with G11T, G12T
DNA 2: B4 DNA 2 with C39A, C40A

How the values were obtained:
Tnp26 WT [1] = molecular target: T1, Tnp26 WT; assay: EMSA
Tnp26 Y54A = molecular target: T2, Tnp26 Y54A; assay: MST
Tnp26 W50A = molecular target: T3, Tnp26 W50A; assay: EMSA
Tnp26 F9A = molecular target: T4, Tnp26 F9A; assay: EMSA
Tnp26 R49A = molecular target: T5, Tnp26 R49A; assay: EMSA
Tnp26 F4A = molecular target: T6, Tnp26 F4A; assay: EMSA
Tnp26 WT [2] = molecular target: T1, Tnp26 WT; assay: EMSA; remark: listed apart in the source
Tnp26 1-56 [3] = molecular target: T7, Tnp26 1-56; assay: EMSA
Tnp26 WT [4] = molecular target: T1, Tnp26 WT; assay: MST
Tnp26 1-56 [5] = molecular target: T7, Tnp26 1-56; assay: EMSA; remark: listed apart in the source

Row | Binder | binding result (Tnp26 W50A) | binding result (Tnp26 F9A) | binding result (Tnp26 R49A) | binding result (Tnp26 F4A) | Kd (Tnp26 WT [4]) | further results
1 | B1 | – | – | – | – | – | binding result (Tnp26 WT [1]): no binding
2 | B2 | no binding | no binding | no binding | no binding | – | Kd (Tnp26 Y54A): 802 nM
3 | B3 | no binding | no binding | no binding | no binding | – | binding result (Tnp26 WT [2]): no binding; binding result (Tnp26 1-56 [3]): no binding
4 | B4 | no binding | no binding | no binding | no binding | 394 nM | –
5 | B5 | – | – | – | – | – | binding result (Tnp26 1-56 [5]): no binding; binding result (Tnp26 WT [2]): no binding
6 | B6 | – | – | – | – | 872 nM | –
7 | B7 | – | – | – | – | 240 nM | –
